Common to all, as to test: cell-based or functional assay
Experiment [1] has as its target FUSN-Cry2olig (N-terminal IDR of FUS fused to mCherry-labeled Cry2olig, Cry2 E490G) (human; Arabidopsis thaliana) (UniProt Q96524).
For experiment [2], the target named is optoDDX4 (N-terminal IDR of Ddx4 fused to mCherry-labeled Cry2WT) (human; Arabidopsis thaliana) (UniProt Q96524).
Experiment [3] deals with optoFUS (N-terminal IDR of FUS fused to mCherry-labeled Cry2 PHR, Cry2WT) (human; Arabidopsis thaliana) (UniProt Q96524).

In turn, “FUSN-Cry2olig (N-terminal IDR of FUS fused to mCherry-labeled Cry2olig, Cry2 E490G) (from UniProt Q96524 1-498)” registered a saturation concentration for light-activated clustering, relative to optoFUS (fold lower than optoFUS) in experiment [1] of 5.

For “optoDDX4 (N-terminal IDR of Ddx4 fused to mCherry-labeled Cry2WT) (from UniProt Q96524 1-498)”, the saturation concentration (Csat) for light-activated phase separation, relative to optoFUS (fold lower than optoFUS) in experiment [2] came to 2. As for “optoFUS (N-terminal IDR of FUS fused to mCherry-labeled Cry2 PHR, Cry2WT) (from UniProt Q96524 1-498)”, in experiment [3], the saturation concentration (Csat) for light-activated phase separation in NIH 3T3 cells was found to be 1.4 µM.

(Values after patent US10533167.)
